# Source: paper PMC3651167
# Target: wild-type rabbit PrP 121–230 (rabbit)
# Assay: SEC
# Chain of wild-type rabbit PrP 121–230 (domain or fragment) (Q95211 119-229 limits assumed): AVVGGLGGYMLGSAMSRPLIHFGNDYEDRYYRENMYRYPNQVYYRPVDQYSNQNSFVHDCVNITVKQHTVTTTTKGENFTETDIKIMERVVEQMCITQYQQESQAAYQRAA
substance,measurement,value
wild-type rabbit PrP 121–230 (domain or fragment),percent octamer after 4 hours,33%
same,stoichiometry N,8
